From article PMC12193508

Columns and labels:
[1] = biological target: MMsHsp (sHsp of Methanococcus maripaludis) (Methanococcus maripaludis); experiment: AUC; sedimentation velocity at 40 °C, 0.1 mg/mL, 40,000 rpm, Rayleigh interference optics, c(s20,w) with SEDFIT; oligomers of one protein
[2] = biological target: MMsHsp (sHsp of Methanococcus maripaludis) (Methanococcus maripaludis); experiment: AUC; sedimentation velocity at 40 °C, 1.0 mg/mL, 40,000 rpm, Rayleigh interference optics, c(s20,w) with SEDFIT; oligomers of one protein

w, weight fraction of peak a (N 2) [1]: 31.3% | w, weight fraction of peak b (N 8) [1]: 4.2% | w, weight fraction of peak c (N 18) [1]: 10.9% | w, weight fraction of peak d (N 24) [1]: 53.6% | stoichiometry N [2]: 16 | w, weight fraction of peak a (N 2) [2]: 16.8% | w, weight fraction of peak b (N 8) [2]: 4.6% | w, weight fraction of peak c (N 17) [2]: 5.3% | w, weight fraction of peak d (N 24) [2]: 73.3%
Substance: MMsHsp (sHsp of Methanococcus maripaludis) (natural protein)
